{
  "source": "IntAct's records for PubMed 9687513",
  "parents": {"B1": {"name": "Early protein (Human adenovirus C serotype 5 (HAdV-5)), P03255-2 (parent)", "chain": "MRHIICHGGVITEEMAASLLDQLIEEVLADNLPPPSHFEPPTLHELYDLDVTAPEDPNEEAVSQIFPDSVMLAVQEGIDLLTFPPAPGSPEPPHLSRQPEQPEQRALGPVSMPNLVPEVIDLTCHEAGFPPSDDEDEEGPVSEPEPEPEPEPEPARPTRRPKMAPAILRRPTSPVSRECNSSTDSCDSGPSNTPPEIHPVVPLCPIKPVAVRVGGRRQAVECIEDLLNEPGQPLDLSCKRPRP"}},
  "data": [
    {"variants_of": "B1", "conditions": "with kat2b_human KAT2B", "values": [
      {"variant": "E55A;D56A;P57A;N58A;E59A;E60A", "effect of a mutation on the interaction": "decreasing interaction"}
    ]}
  ]
}
